Data from patent publication US6379959B1, “Metalocarboxypeptidase inhibitors and derived molecules used as antitumor agents” (Universitat Autonoma de Barcelona, priority 1996, dated 2002).
Positions of bridges follow the written chain, without caps; N, C: chain ends. No end group written: not given here.

What was measured:
[1] = biological target: T1, EGF receptors of the Capan-1 cell line (Homo sapiens, UniProt P00533); test: Competitive binding with 125I-EGF to EGF receptors
T1 construct: endogenous in cells; host or cells: Capan-1 (human pancreatic adenocarcinoma)
Protocol: The detailed procedure that was employed is as follows:
1. 1.25×10^5 cells were seed per well in plates of 24 wells which were kept in culture for 48 h in DMEM FBS 10%. Triplicates were put for each concentration of competitor to be tested.
2. 24 h before the test, the full medium of the wells was replaced by 2 mL, per well, of DMEM without fetal serum.
3. The next day, the cells were washed, three times, with cold binding medium.
4. The cells were incubated with 70 μL of binding medium to which the concentrations of the competitor to be tested had been added. […] Afterwards, 40,000 cpm (350 pM) of ^125I-EFG were added. The incubation was done at 4° C. for 5 h.
5. The cells were washed quickly three times with 500 μL of the cold washing solution.
6. They were solubilized through incubation for 30 min at room temperature with the permeabilization solution.
7. The radioactivity in the suspension was determined with a gamma counter. To determine the unspecific binding, the value of unspecific binding was deducted from the total bounded radioactivity.
From the test, the bounded radioactivity for each one of the tested concentrations of unlabeled competitor was determined. […] To determine the percentage, the following formula was applied: [formula]
where B is the amount of specific binding in presence of a specific competitor concentration.
With the aim of determining the kind of binding which is taking place, a pseudo-Hill or Logit-log representation (Pratt, W. B. and Taylor, P. “Principles of Drug Action. The Basis of Pharmacology”. Ed. Churchill Livingstone, N.Y., 1990) was carried out. The data of specific binding percentage are used to calculate the log(P/[100-P]), which is represented versus the logarithm of the competitor concentration.
The resulting slope of the straight line is called pseudo-Hill coefficient.
The fitting has been made using the programme Graphpad Inplot4. A non-linear fitting for competition for two binding sites is made. The logarithm of the competitor concentration has been represented versus the values of Logit-log (FIG. 25).
From the previous fitting, the value of IC50, that is to say, the competitor concentration which inhibits 50% of the specific binding for the two types of binding was determined. Also, the percentage of the two types of binding sites was determined.

[2] = system: human pancreatic adenocarcinoma cell line IBF-CP3; test: Proliferation test by recount of the cells number (hemocytometer), IBF-CP3; type: cell-based
Protocol: (§1) In this assay and with the aim of determining whether the presence in the culture medium produces some effect on the growth in vitro of the cell lines, the final number of the cells when the control reaches monolayer is determined, in the presence and in the absence of the inhibitor. The calculation is made by direct recount of the number of cells using trypsinization and subsequent recount in a hemocytometer. The detailed method is as follows:
(§2) 1. In each of the three culture flasks of 25 cm^2, 5×10^5 cells are seed and a total volume of the culture medium is added (DMEM with a 10% of fetal bovine serum or synthetic serum, according to the test) of 5 mL:
(§3) A first flask is used as control and no PCI is added to it.
(§4) PCI is added to a second flask some hours after the culture has started and once the cells have adhered to the bottom of the flask. This type of test is defined as postadherence test.
(§5) PCI is added to a third flask at the same time as the culture has begun, before the cells have had time to adhere to the bottom of the flask, thus constituting the preadherence test.
(§6) 2. The cells are maintained in an incubator at 37° C., 87% of relative humidity and 10% of CO2. The medium contained in the flasks is changed every 3-4 days. Medium free of PCI is added to the control flask; medium with PCI is added to the other two.
(§7) 3. When the culture of one of the flasks reaches a state of monolayer (or after a specific number of days), we proceed to count the number of cells in each one of them. Firstly and in order to do that, the cells are trypsinized using the following steps:
(§8) Immediately after, the recount of the number of cells is done. To do that, an aliquot of 10 μL is taken and it is placed in an eppendorf tube. 10 μL of a solution of trypan blue dye is added. Then, it is well mixed and two aliquots of 10 μL of the mixture are taken and placed in the two zones of an hemocytometer which is placed in the inverted microscope.
(§9) The live cells are observed as being refringent and clear, while the dead ones are observed as opaque and dyed blue, for the staining is only able to penetrate dead cells. The total number of cells of the W zone of the hemocytometer is counted, differentiating between the live and the dead ones. Based on this recount, the total number of cells that was in the initial suspension (which will be the total number of cells that was in the culture) is calculated by multiplying the number obtained by 2×10^4. The viability (in %) is calculated by dividing the number of live cells by the total number of counted cells and multiplying it by 100.
(§10) The effect produced by the presence of PCI in the medium is expressed as % of cell growth inhibition, which is calculated according to the formula [formula] […]

[3] = system: human pancreatic adenocarcinoma cell line MDAPanc-3; test: Proliferation test by recount of the cells number (hemocytometer), MDAPanc-3; type: cell-based
Protocol: as §1, §2, §3, §4, §5, §6, §7, §8, §9, §10

[4] = [PCI] nM 1, 350 pM 125I-EGF, 5 h, 4° C.
[5] = 5 mg PCI/mL, Preadhesion, DMEM+10%BMS until controls confluent

Substance: PCI: potato carboxypeptidase inhibitor, isoform IIa, obtained by recombinant DNA techniques in E. coli (SEQ ID NO.2) (EQHADPICNKPCKTHDDCSGAWFCQACWNSARTCGPYVG; disulfide 12-27, 18-34, 8-24)
- % Receptors ([1]; High affinity binding site): 99.7%
- Log (P/[100-P]) ([1]; Log [PCI] M −4.33): −0.272
- Log (P/[100-P]) ([1]; Log [PCI] M −4.93): −0.2246
- Log (P/[100-P]) ([1]; Log [PCI] M −5.83): −0.1873
- Log (P/[100-P]) ([1]; Log [PCI] M −6.63): 0,605
- Log (P/[100-P]) ([1]; Log [PCI] M −7.63): 0.713
- Log (P/[100-P]) ([1]; Log [PCI] M −8.63): 1.205
- Log (P/[100-P]) ([1]; Log [PCI] M −9): 1.99
- % Receptors ([1]; Low affinity binding site): 0.3%
- Percentage of specific binding [1, 4]: 99%
- Specific binding (cpm) [1, 4]: 1597 cpm
- Percentage of specific binding ([1]; [PCI] nM 2.32): 94.14%
- Specific binding (cpm) ([1]; [PCI] nM 2.32): 1503.5 cpm
- Percentage of specific binding ([1]; [PCI] nM 23.2): 83.78%
- Specific binding (cpm) ([1]; [PCI] nM 23.2): 1307 cpm
- Percentage of specific binding ([1]; [PCI] nM 232.8): 80.13%
- Specific binding (cpm) ([1]; [PCI] nM 232.8): 1250 cpm
- Percentage of specific binding ([1]; [PCI] nM 2328.2): 39.38%
- Specific binding (cpm) ([1]; [PCI] nM 2328.2): 621.5 cpm
- Percentage of specific binding ([1]; [PCI] nM 11641): 37.35%
- Specific binding (cpm) ([1]; [PCI] nM 11641): 582.6 cpm
- Percentage of specific binding ([1]; [PCI] nM 46566): 34.83%
- Specific binding (cpm) ([1]; [PCI] nM 46566): 543.33 cpm
- binding capacity to the receptor of high affinity, times inferior to that of the EGF ([1]; high affinity receptor): 6 times
- Percentage of Growth Inhibition ([2]; 5 mg PCI/mL, Postadhesion): 23.7 ± 19.3%
- Percentage of Growth Inhibition [2, 5]: 20.4 ± 14.2%
- Percentage of Growth Inhibition ([2]; 10 mg PCI/mL, Postadhesion): 15.1 ± 8.3%
- Percentage of Growth Inhibition ([2]; 10 mg PCI/mL, Preadhesion): 11.6 ± 8.5%
- Percentage of Growth Inhibition ([3]; 5 mg PCI/mL, Postadhesion): 19.1 ± 14.5%
- Percentage of Growth Inhibition [3, 5]: 20.7 ± 6.9%
- Percentage of Growth Inhibition ([3]; 10 mg PCI/mL, Postadhesion): 14.3 ± 12.4%
- Percentage of Growth Inhibition ([3]; 10 mg PCI/mL, Preadhesion): 14.6 ± 14.2%
